Measured values reported in patent publication US20090136509A1, “Use of Toll-Like Receptor 4 Antagonists for the Treatment or Prevention of Osteoarthritic Conditions” (priority 2007, published 2009).

How the values were obtained:
TLR4 [1] = molecular target: T1, TLR4 (Homo sapiens, UniProt O00206+Q9Y6Y9); conditions: positive control; stated as known; cited from earlier work
T1 construct: alginate cultures of human chondrocytes from healthy volunteers were supplied by Articular Engineering, LLC; host or cells: primary human chondrocytes in alginate culture (healthy volunteers; osteoarthritis patients)
T1 sequence (O00206 24-839): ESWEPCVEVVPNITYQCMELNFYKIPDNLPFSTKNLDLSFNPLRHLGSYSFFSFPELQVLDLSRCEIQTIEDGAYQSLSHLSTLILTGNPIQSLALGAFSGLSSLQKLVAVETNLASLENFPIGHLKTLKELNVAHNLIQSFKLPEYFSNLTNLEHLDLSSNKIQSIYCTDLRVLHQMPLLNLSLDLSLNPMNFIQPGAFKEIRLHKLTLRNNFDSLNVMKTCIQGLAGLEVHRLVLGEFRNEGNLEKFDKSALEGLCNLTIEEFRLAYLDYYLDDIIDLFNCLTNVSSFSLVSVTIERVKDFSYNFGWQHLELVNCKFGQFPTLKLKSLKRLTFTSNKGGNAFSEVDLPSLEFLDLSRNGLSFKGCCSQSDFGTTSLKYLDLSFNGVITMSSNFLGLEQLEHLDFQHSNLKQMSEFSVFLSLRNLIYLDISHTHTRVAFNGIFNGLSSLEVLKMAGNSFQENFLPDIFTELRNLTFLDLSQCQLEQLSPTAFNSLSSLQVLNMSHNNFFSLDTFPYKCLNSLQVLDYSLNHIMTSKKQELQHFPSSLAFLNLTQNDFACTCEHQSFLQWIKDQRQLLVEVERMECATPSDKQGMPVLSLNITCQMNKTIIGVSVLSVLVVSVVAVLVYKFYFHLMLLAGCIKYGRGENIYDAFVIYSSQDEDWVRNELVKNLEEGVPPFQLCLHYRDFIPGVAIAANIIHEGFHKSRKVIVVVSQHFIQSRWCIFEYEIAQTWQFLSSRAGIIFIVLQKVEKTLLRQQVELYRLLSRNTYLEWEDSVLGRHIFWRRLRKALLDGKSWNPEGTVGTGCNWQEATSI
T1 sequence (Q9Y6Y9 17-160 limits assumed): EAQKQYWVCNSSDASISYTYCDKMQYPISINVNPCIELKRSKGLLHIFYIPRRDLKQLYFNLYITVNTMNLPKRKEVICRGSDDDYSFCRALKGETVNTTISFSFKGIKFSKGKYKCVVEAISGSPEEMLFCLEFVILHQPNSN

TLR4 [2] = molecular target: T1, TLR4; assay: 35S incorporation into S-GAG in alginate cultures of human chondrocytes from healthy volunteers; format: cell-based
Description: For these experiments, alginate cultures of human chondrocytes from healthy volunteers were supplied by Articular Engineering, LLC (Northbrook, Ill.) and were maintained as directed by the supplier. “Control” chondrocytes were untreated. “LPS” treated chondrocytes were treated with LPS at a concentration of 1 μg/ml in the media for three days starting at Day 2. “LPS+polymixin B” treated chondrocytes were treated for 1 hour with the […] polymixin B, which is a TLR4 antagonist, at a concentration of 20 μg/ml followed by treatment with the TLR4 receptor agonist LPS at a concentration of 1 μg/ml in the media for three days starting at Day 2. “LPS+TLR4-ECD” treated chondrocytes were treated starting at Day 0 with the TLR4 antagonist TLR4-ECD at a concentration in the media of 50 μg/ml followed by treatment with LPS at a concentration of 1 μg/ml in the media for three days starting at Day 2. TLR4-ECD is a TLR4 receptor antagonist comprising the extracellular domain of hTLR4A and the Fc domain of an IgG1 isotype antibody. TLR4-ECD has the amino acid sequence shown in SEQ ID NO: 4 and is encoded by the cDNA having the nucleic acid sequence shown in SEQ ID NO: 3. […] On Day 5 alginate bead chondrocyte cell cultures were ^35S labelled overnight and ^35S incorporation into S-GAG (sulfated glycosaminoglycan) was then determined as described by Bobacz et al. 56 Arthritis. […]

TLR4 [3] = molecular target: T1, TLR4; assay: 35S incorporation into S-GAG in alginate cultures of human chondrocytes from osteoarthritis patients; format: cell-based
Description: For these experiments, alginate cultures of human chondrocytes from healthy volunteers were supplied by Articular Engineering, LLC (Northbrook, Ill.) and were maintained as directed by the supplier. “Control” chondrocytes were untreated. “LPS” treated chondrocytes were treated with LPS at a concentration of 1 μg/ml in the media for three days starting at Day 2. “LPS+polymixin B” treated chondrocytes were treated for 1 hour with the […] polymixin B, which is a TLR4 antagonist, at a concentration of 20 μg/ml followed by treatment with the TLR4 receptor agonist LPS at a concentration of 1 μg/ml in the media for three days starting at Day 2. […] On Day 5 alginate bead chondrocyte cell cultures were ^35S labelled overnight and ^35S incorporation into S-GAG (sulfated glycosaminoglycan) was then determined as described by Bobacz et al. 56 Arthritis. […]
For these experiments, alginate cultures of human chondrocytes from osteoarthritis patients were supplied by Articular Engineering, LLC (Northbrook, Ill.) and were maintained as directed by the supplier. […] At Day 5 alginate bead chondrocyte cell cultures were ^35S labelled overnight and ^35S incorporation into S-GAG (sulfated glycosaminoglycan) was then determined as described by Bobacz et al. 56 Arthritis. […]

Substance | sGAG synthesis by human chondrocytes (TLR4 [1]) | S-GAG synthesis (TLR4 [2]; hTLR4-ECD 50 μg/ml from Day 0 + LPS 1 μg/ml from Day 2, relative to LPS alone (FIG. 18)) | S-GAG synthesis (TLR4 [2]; hTLR4-ECD alone 50 μg/ml from Day 0, relative to LPS alone (FIG. 18)) | S-GAG synthesis (TLR4 [3]; hTLR4-ECD 50 μg/ml from Day 0 + LPS 1 μg/ml from Day 2, relative to LPS alone (FIG. 19)) | S-GAG synthesis (TLR4 [3]; hTLR4-ECD alone 50 μg/ml from Day 0, relative to LPS alone (FIG. 19))
IGF1: Insulin-like Growth Factor 1, used as a positive control | stimulate sGAG synthesis |  |  |  | 
hTLR4-ECD: TLR4 receptor antagonist comprising the extracellular domain of hTLR4A and the Fc domain of an IgG1 isotype antibody; preparations contained approximately 25% MD2 |  | increased S-GAG synthesis relative to chondrocytes treated with LPS alone | increased S-GAG synthesis relative to chondrocytes treated with LPS alone | increased S-GAG synthesis relative to chondrocytes from osteoarthritis patients treated with LPS alone | increased S-GAG synthesis relative to chondrocytes from osteoarthritis patients treated with LPS alone
